Target: GST-Pol32 (Saccharomyces cerevisiae (budding …, UniProt P47110 1-350))
Test: EMSA

Sequence of GST-Pol32 (Saccharomyces cerevisiae (P47110 whole entry): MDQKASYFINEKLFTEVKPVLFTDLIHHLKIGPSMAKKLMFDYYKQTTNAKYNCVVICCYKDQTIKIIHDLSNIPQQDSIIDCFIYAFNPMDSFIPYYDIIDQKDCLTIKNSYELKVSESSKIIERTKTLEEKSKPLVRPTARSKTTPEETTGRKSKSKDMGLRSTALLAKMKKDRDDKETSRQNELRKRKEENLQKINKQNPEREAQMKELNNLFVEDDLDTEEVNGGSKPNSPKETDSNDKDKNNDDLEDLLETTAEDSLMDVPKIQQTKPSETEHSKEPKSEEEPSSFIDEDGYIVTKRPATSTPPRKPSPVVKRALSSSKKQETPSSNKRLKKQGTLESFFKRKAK

B1: 58bp DNA (dsDNA)
DNA 1: ATACATTTTATGACTGGAAACTTTTTTGTACAACACTCCAATAAACATTTTGATTTTA
DNA 2: TAAAATCAAAATGTTTATTGGAGTGTTGTACAAAAAAGTTTCCAGTCATAAAATGTAT
- binding result: binds
